Experiment [1] addresses T1, Recombinant human MASP1 enzyme (fragment corresponding to amino acids 297-699, C-terminal His Tag) (human, UniProt P48740 297-699).
T1 sequence: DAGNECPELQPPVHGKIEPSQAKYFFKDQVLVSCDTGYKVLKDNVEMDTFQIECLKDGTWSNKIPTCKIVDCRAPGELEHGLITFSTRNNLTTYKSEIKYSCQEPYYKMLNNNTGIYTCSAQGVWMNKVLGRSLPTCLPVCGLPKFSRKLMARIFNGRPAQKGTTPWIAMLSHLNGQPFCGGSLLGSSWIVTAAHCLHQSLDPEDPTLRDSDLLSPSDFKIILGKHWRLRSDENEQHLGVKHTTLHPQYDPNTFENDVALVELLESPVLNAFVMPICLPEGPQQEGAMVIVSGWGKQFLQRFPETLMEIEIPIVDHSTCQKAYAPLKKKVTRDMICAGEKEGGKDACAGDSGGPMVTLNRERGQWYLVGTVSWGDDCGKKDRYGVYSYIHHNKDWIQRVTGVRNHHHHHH
The experiment in a line: cell-based or functional assay.

Experiment [2] deals with Recombinant human MASP2 enzyme (fragment corresponding to amino acids 297-686, C-terminal His Tag) (human, UniProt O00187 297-686). The experiment is described as follows: cell-based or functional assay.
Recombinant human MASP2 enzyme (fragment corresponding to amino acids 297-686, C-terminal His Tag), sequence (O00187 other isoform, or with tags, fused parts or gaps limits assumed): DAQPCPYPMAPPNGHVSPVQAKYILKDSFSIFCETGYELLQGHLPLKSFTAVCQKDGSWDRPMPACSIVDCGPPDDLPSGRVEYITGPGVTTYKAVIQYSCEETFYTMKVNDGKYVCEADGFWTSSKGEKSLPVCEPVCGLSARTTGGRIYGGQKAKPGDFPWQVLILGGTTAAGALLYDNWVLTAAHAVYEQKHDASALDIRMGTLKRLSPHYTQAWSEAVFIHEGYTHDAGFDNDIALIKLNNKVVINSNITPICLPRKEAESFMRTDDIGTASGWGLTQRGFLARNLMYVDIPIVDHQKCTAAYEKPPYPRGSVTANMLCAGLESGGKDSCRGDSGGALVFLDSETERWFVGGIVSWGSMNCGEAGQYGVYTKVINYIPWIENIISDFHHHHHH

Consider 11 molecules from US20210246166A1 (Bayer, published 2021).

Numbered stars: 1 amine (or outer) side, 2 acyl side, 3 side chain; on linkers, the order of the positions; unused ones are H or OH. Bridge positions count the residues as written; N and C are the ends. Square brackets hold non-standard residues; d marks the D form. Ends that are not written are not given here. Freidinger's Lactam = (2S)-2-[(3R)-3-amino-2-oxopyrrolidin-1-yl]-4-methylpentanoic acid (Freidinger's lactam), CC(C)C[C@@H](C(=O)[*:2])N1CC[C@@H](N[*:1])C1=O; X13 = (2S)‑2‑amino‑3‑(1-methylcyclopropyl)propanoic acid, CC1(C[C@H](N[*:1])C(=O)[*:2])CC1; Ida = iminodiacetic acid, O=C(CN(CC(=O)[*:3])[*:1])[*:2]; Phe(2,5-diF) = O=C([C@H](Cc1cc(F)ccc1F)N[*:1])[*:2]; Pro(3S,4R-methano) = O=C(O)[C@H]1NC[C@@H]2C[C@@H]21; Pro(cis-4-CF3) = O=C(O)[C@@H]1C[C@H](C(F)(F)F)CN1; Pro(4-spirocPr) = O=C(O)[C@@H]1CC2(CC2)CN1; Oic = O=C(O)[C@@H]1C[C@@H]2CCCC[C@@H]2N1; tBuAla = CC(C)(C)C[C@H](N)C(=O)O; Pen = CC(C)(S)[C@H](N)C(=O)O; Sar = CNCC(=O)O

B1: pIC+SRSLP-(Oic)-I-(Pen)+IP-(Ida)-OH (HCl salt) (peptide)
peptide: [dP]ICSRSLP[Oic]I[Pen]IP[Ida]-OH
modifications: disulfide 3-11; also: HCl salt
For the molecule B1, in experiment [1], the “human MASP1 IC50” value is 7.5 nM. Besides, the “human MASP2 IC50” value in experiment [2] is 65 nM.

B2: ((N-Me)G)-IC+SRSLP-(Oic)-I-(Pen)+IP-(Freidinger's Lactam)-OH (peptide)
peptide: [Sar]ICSRSLP[Oic]I[Pen]IP[Freidinger's Lactam]-OH
modifications: disulfide 3-11; N-terminus assumed
SMILES: CC[C@H](C)[C@H](NC(=O)CNC)C(=O)N[C@H]1CSSC(C)(C)[C@@H](C(=O)N[C@H](C(=O)N2CCC[C@H]2C(=O)N[C@@H]2CCN([C@@H](CC(C)C)C(=O)O)C2=O)[C@@H](C)CC)NC(=O)[C@H]([C@@H](C)CC)NC(=O)[C@@H]2C[C@@H]3CCCC[C@@H]3N2C(=O)[C@@H]2CCCN2C(=O)[C@H](CC(C)C)NC(=O)[C@H](CO)NC(=O)[C@H](CCCNC(=N)N)NC(=O)[C@H](CO)NC1=O
In the case of B2, the “human MASP1 IC50” value in experiment [1] amounted to 23 nM. The “human MASP2 IC50” value in experiment [2] was 96 nM.

B3: aIC+SRS-((tBu)A)-P-((6S)-5-Azaspiro[2.4]heptane-6-carboxylic acid)-I-(Pen)+IPe-OH (peptide)
peptide: [dA]ICSRS[tBuAla]P[Pro(4-spirocPr)]I[Pen]IP[dE]-OH
modifications: disulfide 3-11; N-terminus assumed
SMILES: CC[C@H](C)[C@H](NC(=O)[C@@H](C)N)C(=O)N[C@H]1CSSC(C)(C)[C@@H](C(=O)N[C@H](C(=O)N2CCC[C@H]2C(=O)N[C@H](CCC(=O)O)C(=O)O)[C@@H](C)CC)NC(=O)[C@H]([C@@H](C)CC)NC(=O)[C@@H]2CC3(CC3)CN2C(=O)[C@@H]2CCCN2C(=O)[C@H](CC(C)(C)C)NC(=O)[C@H](CO)NC(=O)[C@H](CCCNC(=N)N)NC(=O)[C@H](CO)NC1=O
As to B3, the “human MASP1 IC50” value in experiment [1] was 4.4 nM. Further, the “human MASP2 IC50” value in experiment [2] amounted to 24 nM.

B4: aIC+SRS-((tBu)A)-P-((6S)-5-Azaspiro[2.4]heptane-6-carboxylic acid)-I-(Pen)+IPD-OH (peptide)
peptide: [dA]ICSRS[tBuAla]P[Pro(4-spirocPr)]I[Pen]IPD-OH
modifications: disulfide 3-11; N-terminus assumed
SMILES: CC[C@H](C)[C@H](NC(=O)[C@@H](C)N)C(=O)N[C@H]1CSSC(C)(C)[C@@H](C(=O)N[C@H](C(=O)N2CCC[C@H]2C(=O)N[C@@H](CC(=O)O)C(=O)O)[C@@H](C)CC)NC(=O)[C@H]([C@@H](C)CC)NC(=O)[C@@H]2CC3(CC3)CN2C(=O)[C@@H]2CCCN2C(=O)[C@H](CC(C)(C)C)NC(=O)[C@H](CO)NC(=O)[C@H](CCCNC(=N)N)NC(=O)[C@H](CO)NC1=O
B4: the “human MASP1 IC50” value in experiment [1] came out at 4.4 nM. In experiment [2], the “human MASP2 IC50” value is 22 nM.

B5: ((N-Me)G)-FC+TRK-((tBu)A)-(Pen)+YPD-OH (peptide)
peptide: [Sar]FCTRK[tBuAla][Pen]YPD-OH
modifications: disulfide 3-8; N-terminus assumed
SMILES: CNCC(=O)N[C@@H](Cc1ccccc1)C(=O)N[C@H]1CSSC(C)(C)[C@@H](C(=O)N[C@@H](Cc2ccc(O)cc2)C(=O)N2CCC[C@H]2C(=O)N[C@@H](CC(=O)O)C(=O)O)NC(=O)[C@H](CC(C)(C)C)NC(=O)[C@H](CCCCN)NC(=O)[C@H](CCCNC(=N)N)NC(=O)[C@H]([C@@H](C)O)NC1=O
Consider B5, for which the “human MASP1 IC50” value in experiment [1] amounted to 1000 nM. In experiment [2], the “human MASP2 IC50” value is 1000 nM.

B6: ((N-Me)G)-IC+SRS-((2S)-2-amino-3-(1-methylcyclopropyl)propanoic acid)-P-(Oic)-I-(Pen)+IPD-OH (peptide)
peptide: [Sar]ICSRS[X13]P[Oic]I[Pen]IPD-OH
modifications: disulfide 3-11; N-terminus assumed
SMILES: CC[C@H](C)[C@H](NC(=O)CNC)C(=O)N[C@H]1CSSC(C)(C)[C@@H](C(=O)N[C@H](C(=O)N2CCC[C@H]2C(=O)N[C@@H](CC(=O)O)C(=O)O)[C@@H](C)CC)NC(=O)[C@H]([C@@H](C)CC)NC(=O)[C@@H]2C[C@@H]3CCCC[C@@H]3N2C(=O)[C@@H]2CCCN2C(=O)[C@H](CC2(C)CC2)NC(=O)[C@H](CO)NC(=O)[C@H](CCCNC(=N)N)NC(=O)[C@H](CO)NC1=O
With B6, in experiment [1], the “human MASP1 IC50” value is 20 nM. Moreover, the “human MASP2 IC50” value in experiment [2] came out at 230 nM.

B7: AIC+SRS-((tBu)A)-P-((4-CF3)P)-I-(Pen)+IPD-OH (peptide)
peptide: AICSRS[tBuAla]P[Pro(cis-4-CF3)]I[Pen]IPD-OH
modifications: disulfide 3-11; N-terminus assumed
SMILES: CC[C@H](C)[C@H](NC(=O)[C@H](C)N)C(=O)N[C@H]1CSSC(C)(C)[C@@H](C(=O)N[C@H](C(=O)N2CCC[C@H]2C(=O)N[C@@H](CC(=O)O)C(=O)O)[C@@H](C)CC)NC(=O)[C@H]([C@@H](C)CC)NC(=O)[C@@H]2C[C@H](C(F)(F)F)CN2C(=O)[C@@H]2CCCN2C(=O)[C@H](CC(C)(C)C)NC(=O)[C@H](CO)NC(=O)[C@H](CCCNC(=N)N)NC(=O)[C@H](CO)NC1=O
For B7, the “human MASP1 IC50” value in experiment [1] is 3.1 nM. Also, the “human MASP2 IC50” value in experiment [2] came to 510 nM.

B8: ((N-Me)G)-IC+SRS-((tBu)A)-P-((1S,2S,5R)-3-azabicyclo[3.1.0]hexane-2-carboxylic acid)-I-(Pen)+IPD-OH (peptide)
peptide: [Sar]ICSRS[tBuAla]P[Pro(3S,4R-methano)]I[Pen]IPD-OH
modifications: disulfide 3-11; N-terminus assumed
SMILES: CC[C@H](C)[C@H](NC(=O)CNC)C(=O)N[C@H]1CSSC(C)(C)[C@@H](C(=O)N[C@H](C(=O)N2CCC[C@H]2C(=O)N[C@@H](CC(=O)O)C(=O)O)[C@@H](C)CC)NC(=O)[C@H]([C@@H](C)CC)NC(=O)[C@@H]2[C@H]3C[C@H]3CN2C(=O)[C@@H]2CCCN2C(=O)[C@H](CC(C)(C)C)NC(=O)[C@H](CO)NC(=O)[C@H](CCCNC(=N)N)NC(=O)[C@H](CO)NC1=O
As for B8, the “human MASP1 IC50” value in experiment [1] came out at 6.6 nM. Moreover, in experiment [2], the “human MASP2 IC50” value came to 104 nM.

B9: ((N-Me)G)-IC+SRS-((2,5-Difluoro)F)-PPI-(Pen)+IPDd-OH (peptide)
peptide: [Sar]ICSRS[Phe(2,5-diF)]PPI[Pen]IPD[dD]-OH
modifications: disulfide 3-11; N-terminus assumed
SMILES: CC[C@H](C)[C@H](NC(=O)CNC)C(=O)N[C@H]1CSSC(C)(C)[C@@H](C(=O)N[C@H](C(=O)N2CCC[C@H]2C(=O)N[C@@H](CC(=O)O)C(=O)N[C@H](CC(=O)O)C(=O)O)[C@@H](C)CC)NC(=O)[C@H]([C@@H](C)CC)NC(=O)[C@@H]2CCCN2C(=O)[C@@H]2CCCN2C(=O)[C@H](Cc2cc(F)ccc2F)NC(=O)[C@H](CO)NC(=O)[C@H](CCCNC(=N)N)NC(=O)[C@H](CO)NC1=O
Consider B9, for which, in experiment [1], the “human MASP1 IC50” value turned out to be 17 nM. Also, in experiment [2], the “human MASP2 IC50” value came to 20 nM.

B10: AIC+SRS-((tBu)A)-P-((4-CF3)P)-IC+IPD-OH (peptide)
peptide: AICSRS[tBuAla]P[Pro(cis-4-CF3)]ICIPD-OH
modifications: disulfide 3-11; N-terminus assumed
SMILES: CC[C@H](C)[C@H](NC(=O)[C@H](C)N)C(=O)N[C@H]1CSSC[C@@H](C(=O)N[C@H](C(=O)N2CCC[C@H]2C(=O)N[C@@H](CC(=O)O)C(=O)O)[C@@H](C)CC)NC(=O)[C@H]([C@@H](C)CC)NC(=O)[C@@H]2C[C@H](C(F)(F)F)CN2C(=O)[C@@H]2CCCN2C(=O)[C@H](CC(C)(C)C)NC(=O)[C@H](CO)NC(=O)[C@H](CCCNC(=N)N)NC(=O)[C@H](CO)NC1=O
Regarding B10, the “human MASP1 IC50” value in experiment [1] turned out to be 7.8 nM. Further, in experiment [2], the “human MASP2 IC50” value is 1000 nM.

B11: ((N-Me)G)-IC+SRS-((2,5-Difluoro)F)-PPI-(Pen)+IPe-OH (peptide)
peptide: [Sar]ICSRS[Phe(2,5-diF)]PPI[Pen]IP[dE]-OH
modifications: disulfide 3-11; N-terminus assumed
SMILES: CC[C@H](C)[C@H](NC(=O)CNC)C(=O)N[C@H]1CSSC(C)(C)[C@@H](C(=O)N[C@H](C(=O)N2CCC[C@H]2C(=O)N[C@H](CCC(=O)O)C(=O)O)[C@@H](C)CC)NC(=O)[C@H]([C@@H](C)CC)NC(=O)[C@@H]2CCCN2C(=O)[C@@H]2CCCN2C(=O)[C@H](Cc2cc(F)ccc2F)NC(=O)[C@H](CO)NC(=O)[C@H](CCCNC(=N)N)NC(=O)[C@H](CO)NC1=O
On to B11, for which the “human MASP1 IC50” value in experiment [1] was found to be 21 nM. In addition, the “human MASP2 IC50” value in experiment [2] turned out to be 64 nM.
